Biological target: specific antigen (aa 245-258 of the GCN4 leucine zipper) fused to LexA (yeast)
Test: yeast two hybrid, LacZ reporter, bait LexA-GCN4 leucine zipper; Empty Vector is printed as 0.18

Rel. β-gal. activity %: 0.19%
Substance: Gal4 AD-AL5 scFv fusion (ampicillin-binding control scFv AL5) (from UniProt P04386 768-881)
